Usually Kd stands for the free concentration of one partner at which half of the binding sites on the other are occupied at equilibrium, for simple one-to-one binding. A lower Kd goes with tighter binding.

Where two headings read alike, the source gives them in different places.

The target of experiment [1] is ΔEspP peptide labeled with carboxyfluorescein. As to the kind of experiment: fluorescence polarisation.
Experiment [2] has the same target. As to the kind of experiment: fluorescence polarisation. The source holds these as a separate data set. Background: In fluorescence polarisation assays a small probe gives low polarisation when free and higher when bound to something large.
The target is the same in experiment [3]. The experiment is described as follows: fluorescence polarisation. This is another data set of the same source.
The target is the same in experiment [4]. The experiment is described as follows: fluorescence polarisation. This is another data set of the same source.
The target of experiment [5] is T1, FtsY (Escherichia coli), P10121.
T1 chain: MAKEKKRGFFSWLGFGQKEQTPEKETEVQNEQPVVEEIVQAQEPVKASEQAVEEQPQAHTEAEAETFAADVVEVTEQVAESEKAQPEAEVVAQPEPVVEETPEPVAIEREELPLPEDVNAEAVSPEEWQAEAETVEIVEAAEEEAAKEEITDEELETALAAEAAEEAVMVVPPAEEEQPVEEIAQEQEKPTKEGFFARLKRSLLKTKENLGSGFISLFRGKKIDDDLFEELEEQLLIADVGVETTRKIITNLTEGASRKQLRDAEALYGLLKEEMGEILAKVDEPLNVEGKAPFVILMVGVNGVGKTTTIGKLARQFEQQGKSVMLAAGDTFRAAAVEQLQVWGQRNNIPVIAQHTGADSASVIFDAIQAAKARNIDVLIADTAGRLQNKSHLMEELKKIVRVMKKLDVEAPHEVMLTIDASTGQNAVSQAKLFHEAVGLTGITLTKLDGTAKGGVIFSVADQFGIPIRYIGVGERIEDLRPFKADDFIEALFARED
As to the kind of experiment: other fluorescence titration. The following applies: remark: other sources report otherwise.

B1: Ffh (natural protein)
chain: MFDNLTDRLSRTLRNISGRGRLTEDNVKDTLREVRMALLEADVALPVVREFINRVKEKAVGHEVNKSLTPGQEFVKIVRNELVAAMGEENQTLNLAAQPPAVVLMAGLQGAGKTTSVGKLGKFLREKHKKKVLVVSADVYRPAAIKQLETLAEQVGVDFFPSDVGQKPVDIVNAALKEAKLKFYDVLLVDTAGRLHVDEAMMDEIKQVHASINPVETLFVVDAMTGQDAANTAKAFNEALPLTGVVLTKVDGDARGGAALSIRHITGKPIKFLGVGEKTEALEPFHPDRIASRILGMGDVLSLIEDIESKVDRAQAEKLASKLKKGDGFDLNDFLEQLRQMKNMGGMASLMGKLPGMGQIPDNVKSQMDDKVLVRMEAIINSMTMKERAKPEIIKGSRKRRIAAGCGMQVQDVNRLLKQFDDMQRMMKKMKKGGMAKMMRSMKGMMPPGFPGR
In the case of B1, the dissociation constant (Kd) in experiment [1] came to 5.5 µM; in experiment [2] it was 21.6 µM; in experiment [3], 19.6 µM; in experiment [4] it was 1.5 µM.

B2: Ffh, P0AGD7 1-453 (natural protein)
chain: MFDNLTDRLSRTLRNISGRGRLTEDNVKDTLREVRMALLEADVALPVVREFINRVKEKAVGHEVNKSLTPGQEFVKIVRNELVAAMGEENQTLNLAAQPPAVVLMAGLQGAGKTTSVGKLGKFLREKHKKKVLVVSADVYRPAAIKQLETLAEQVGVDFFPSDVGQKPVDIVNAALKEAKLKFYDVLLVDTAGRLHVDEAMMDEIKQVHASINPVETLFVVDAMTGQDAANTAKAFNEALPLTGVVLTKVDGDARGGAALSIRHITGKPIKFLGVGEKTEALEPFHPDRIASRILGMGDVLSLIEDIESKVDRAQAEKLASKLKKGDGFDLNDFLEQLRQMKNMGGMASLMGKLPGMGQIPDNVKSQMDDKVLVRMEAIINSMTMKERAKPEIIKGSRKRRIAAGCGMQVQDVNRLLKQFDDMQRMMKKMKKGGMAKMMRSMKGMMPPGFPGR
As for B2, in experiment [5], the fold change of the association rate with C12E8 against without (with 4.5S RNA) came to 70 fold, the fold change of the association rate with ΔEspP* against without (with 4.5S RNA) is > 40 fold, the fold change of the dissociation rate with C12E8 against without (with 4.5S RNA) was 23 fold and the fold change of the dissociation rate with ΔEspP* against without (with 4.5S RNA) stood at 10 fold.
